From US20250236666A1 (UNIVERSITE DE LILLE, published 2025)
Residue numbers refer to the chain shown, from its start. No end group written: not given here. *: point of attachment. Biotin = O=C1N[C@H]2[C@H](CS[C@H]2CCCCC(=O)*)N1; C6spacer = C6 spacer

T1: Human Transient Receptor Potential Vanilloid 6 (TRPV6) channel protein (human, UniProt Q9H1D0 1-765, glycosylated/mature form (band around 95-100 kDa); N-glycosylation site at position 397)
T1 construct: Endogenous or vector-expressed TRPV6 of human cell lines (LNCaP, PC3M luc C6, transfected HEK); On live cells in flow cytometry and the functional assays; in whole cell lysates under denaturing conditions (monomer) in the immunoblots; also called hTRPV6
T1 sequence: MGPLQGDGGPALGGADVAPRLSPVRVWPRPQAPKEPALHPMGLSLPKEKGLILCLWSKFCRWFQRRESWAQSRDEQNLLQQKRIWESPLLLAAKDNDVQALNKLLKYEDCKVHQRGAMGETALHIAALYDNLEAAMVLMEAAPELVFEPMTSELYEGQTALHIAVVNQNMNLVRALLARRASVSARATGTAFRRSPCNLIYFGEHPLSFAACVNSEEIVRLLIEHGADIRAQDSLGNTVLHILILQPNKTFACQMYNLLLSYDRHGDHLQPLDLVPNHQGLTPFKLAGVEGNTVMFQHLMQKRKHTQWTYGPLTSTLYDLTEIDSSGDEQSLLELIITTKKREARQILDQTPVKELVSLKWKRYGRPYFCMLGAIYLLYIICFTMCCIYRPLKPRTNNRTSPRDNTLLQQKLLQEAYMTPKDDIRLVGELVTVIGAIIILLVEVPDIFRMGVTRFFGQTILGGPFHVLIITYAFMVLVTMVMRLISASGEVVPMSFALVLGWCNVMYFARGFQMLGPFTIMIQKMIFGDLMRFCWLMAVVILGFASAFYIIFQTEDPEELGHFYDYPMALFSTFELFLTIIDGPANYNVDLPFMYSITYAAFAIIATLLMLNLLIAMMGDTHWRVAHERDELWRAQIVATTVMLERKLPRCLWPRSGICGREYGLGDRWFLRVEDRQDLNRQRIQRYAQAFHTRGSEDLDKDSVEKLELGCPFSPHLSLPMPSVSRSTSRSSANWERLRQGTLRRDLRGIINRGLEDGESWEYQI

T2: Peptide 2 (Pore Forming 1) TEDPEELGHFYDYPMAK-[biot] (human)
T2 construct: Synthetic biotinylated peptide immobilized at 10 µg/mL on streptavidin plates; also called P2
T2 peptide: TEDPEELGHFYDYPMAK-biotin

T3: Peptide 3 (Pore Forming 2) [biot]-[C6spacer]-DGPANYNVDLPFMYS (human)
T3 construct: Synthetic biotinylated peptide immobilized at 10 µg/mL on streptavidin plates; also called P3
T3 peptide: {Biotin-C6spacer}-DGPANYNVDLPFMYS

B1: Mouse monoclonal anti-TRPV6 antibody 82 (mAb82) (antibody, mouse IgG2a, kappa, V domains shown)
VH: EVKLLESGGGLVQPGGSLKLSCAASGFDFRRYWMSWVRQAPGKGLEWIGEINPDSSTINYTPSLKDKFIISRDNAKNTLYLQMSKVRSEDTALYYCARSASSHYFDYWGQGTTLTVSS
VL: DIVMSQSPSSLAVSVGEKVTMSCKSSQSLLYSSNQKNYLAWYQQKPGQSPKLLIYWASTRESGVPDRFTGSGSGTDFTLTISSVKAEDLAVYYCQQYYRYPTFGGGTKLEIKR
notes: also called mab82a; No. 82a
B2: Monoclonal antibody P2-R4-G08 (antibody, human IgG1, kappa, V domains shown)
VH: EVQLVESGGSLVKPGGSLRLSCAASGFTFSNYGMNWVRQAPGKGLEWISGISGSSRSIGYADFVKGRFTISRDNAKNSLYLQMNSLRAEDTAVYYCVRSSYYYGMDVWGRGTLVTVSS
VL: QSVLTQPASVSGSPGQSITISCAGTSSDVGGYGQVSWYQQHPGKAPKLMIYSDSSRPSGVSNRFSGSKSGNTASLTISGLQAEDEADYYCSSYTSYSTRVFGGGTKLEIKR
notes: scFv from phage display subcloned into Human IgG1 format, expressed in HEK293T; also called P2-R4-G8
B3: Monoclonal antibody P3-R5-H03 (antibody, human IgG1, kappa, V domains shown)
VH: B2 VH with Y32A, G50Y, S57Y, G59N, Y101S, Y102S
VL: B2 VL with Y32G, G33Y, Q34Y, S52G, S55N, Y93N, S95Y
notes: scFv from phage display subcloned into Human IgG1 format, expressed in HEK293T; also called P3-R5-H3
B4: Monoclonal antibody P3-R5-E06 (antibody, human IgG1, kappa, V domains shown)
VH: EVQLVESGGSLVKPGGSLRLSCAASGFTFSNAYMNWVRQAPGKGLEWISSISGSSSYIGYADFVKGRFTISRDNAKNSLYLQMNSLRAEDTAVYYCVRSSYYNYDYGDAMDVWGRGTLVTVSS
VL: B2 VL with Y32N, G33Y, Q34Y, S52Q, S55N, S95G
notes: scFv from phage display subcloned into Human IgG1 format, expressed in HEK293T; also called P3-R5-E6
B5: Monoclonal antibody P3-R4-E11 (antibody, human IgG1, kappa, V domains shown)
VH: EVQLVESGGSLVKPGGSLRLSCAASGFTFSNSGMNWVRQAPGKGLEWISGISGSSRYIGYADFVKGRFTISRDNAKNSLYLQMNSLRAEDTAVYYCVRSNYGGMDVWGRGTLVTVSS
VL: B2 VL with Q34Y, S52Y, S55Y, Y96Q
notes: scFv from phage display subcloned into Human IgG1 format, expressed in HEK293T
B6: Monoclonal antibody P3-R4-F03 (antibody, human IgG1, kappa, V domains shown)
VH: EVQLVESGGSLVKPGGSLRLSCAASGFTFSNNYMNWVRQAPGKGLEWISSIGGSSRDIYYADFVKGRFTISRDNAKNSLYLQMNSLRAEDTAVYYCVRSNSGMDVWGRGTLVTVSS
VL: B2 VL with Y32S, G33Y, Q34S, S52Y, S55Y, Y93N, S95Q, Y96S
notes: scFv from phage display subcloned into Human IgG1 format, expressed in HEK293T; also called P3-R4-F3

Legend:
[1] = target: T1, Human Transient Receptor Potential …; assay: immunoblotting of LNCaP whole cell lysates, denaturing conditions
[2] = target: T2, Peptide 2 (Pore Forming 1) …; assay: dose-response ELISA, biotinylated peptide on streptavidin plate, IgG 0.00282 to 500 nM, anti-Fab-HRP
Procedure: (§1) TRPV6 biotinylated peptides were immobilized at 10 μg/mL on a streptavidin coated plate. IgGs binding was tested at different concentrations (from 0.00282 to 500 nM) and detected using an anti-Fab-HRP (Sigma A0293).
(§2) IgGs binding to Human TRPV6 peptides was tested by ELISA. TRPV6 biotinylated peptides were immobilized at 10 μg/mL on a streptavidin coated plate. IgGs binding was tested at different concentrations (from 0.00282 to 500 nM) and detected using an anti-Fab-HRP (Sigma A0293).

[3] = target: T3, Peptide 3 (Pore Forming 2) …; assay: as above
Procedure: as §1, §2

| Binder | EC50 [3] [pM] | also measured |
| --- | --- | --- |
| B1 |  | binding result [1]: binds |
| B2 |  | EC50 [2]: 490 pM |
| B3 | 360 |  |
| B4 | 980 |  |
| B5 | 900 |  |
| B6 | 860 |  |
